Laboratory results: the domain aggregation screens of Martell et al. (2025)

Experiment: soluble fraction after stress (log2 fold change); higher = more stays soluble; pooled small domains, quantitative proteomics
Conditions: stress: 75 degC
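Also: 20 min heating vs room temperature control held 20 min.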

Sequence	soluble fraction (log2)
HMNMGEKIRSLIGQFGVTSEDLKNLSVANLLIRMNQEAGDSKTKGILASLLETVNKAGVGNLTPDALGIK	-0.164
HMNMLGEQVRNIRKSRGFTLKALAEQTGLSIGYISQIERNLTDPSLSTLRKISAALDVPTYLFMG	-2.13
HMNMLGSNIKYLRNRHKLSQQELSEKLGVPRSSLSDYERGHTQVGLDSLIKLADIFDVKIDDLLRSNLSHR	-0.439
HMNMPHEIDANFISSLGRLIDNHGKNYGDFQIFREMFLDYFPRFDELSSNNKEKINRRLYKFFETLFG	-2.09
HMNMVEESVKKSSQWAVFEPNTISTWVKIQAMIENYLYQKWKEGALAGAKPEHAFFVKVGLGETM	0.258
HMNNEISINGNKIYFNKNISKVFIYDISGKLIKHKNNFNNNFIDLSEFNSAFYIIKALDINENYTTKKIFL	-1.69
HMNNFTPEHLEKDIEGSLFFRRLKETAREEPGSLTVAQKDFIQMWHDQADGVYTLRQVFVQTAFDHVRSL	0.315
HMNNFTQSALDTIDGIGKRRKKLLLNHFGSVKLIENASIEDIKKIDGISDLVANKIYNFFNKN	-1.04
HMNNGAEIGAEIRSLRKARGLTLEDLAAKIGRSVGYISQVERGISPLTIPNLKAIAEVLGVGINWFFRGEA	-1.15
HMNNILNYTIAELMEILKIDDLETENVINSSNNLINKSINENNFPLAEFYEDVKNNLIEFIETFDS	-0.771
HMNNLELSEEEKSVLTIIEKEGLIELDKLKTKLELSNKKWDKTLKFLTKNKLAKVVKNDNGLFVEL	-0.158
HMNNLLEDIKARLMAQAEAGGHIDTETELAEHFGVTRYRIRKELDLLSQMGLLRRQPKNGIEVLTV	-0.171
HMNNLNDIIEIIRIYAKNYARNNPSWNHSELINRIRDKALGEAEDYNIRLSEEDLALITELSLRGL	-0.713
HMNNMVNTLLKLLAEQDVLRGIVRRFTPSSVFVFLQNEEVEVELPLQGRSLAPGQLVELTQEGASVALKRL	-0.936
HMNNPLLDKVYQLMKQNNITEEEIVRAVAMKGYFPDDMKLGDYPDDFIDGVLIGAWDQIKQFIINNISPFK	-0.281
HMNNSDIDITVGKNSISINNPNRTNIIIYSSNGMLIDSSKNASYKRNLPSGIYIVKSGSSTHKVIV	-0.905
HMNNTIKFFVSQDDDSTRLDVFLSKKIENLTRSNIKKFINLNNVKINKATINSPSKKVKLYDEIEIKFSS	-2.46
HMNNTIKFSVDSQNSGKRLDIFLTENIKNYTRSFLKKLIENRQVKLNNNFIISPSERVKFKDQININILQ	-1.8
HMNNVDIMGRMVYDDQHREVINFGKYKGVLVTEVLKKDPGYFSWIQQGDFPSDMKRIMMAIKLRM	-2.61

Sequence	soluble fraction (log2)
HMNNVDQLIEQYKTLPGGLLPLLHAIKHALGYIPESTVGSIAKGFNLSRAEVHGVISFYHDFNTQP	0.07
HMNPAYTDSRMKTFLEELPVMKASLSQKHVTRFLVWQEYIGRHPDGYGKSQFFYHLKQNLVAAKG	-0.391
HMNPDTERIREFVAVSLKNRKVATSGEIQNMIVKQFKNFKLKSHGYSNMKSFLSSIDKIQLNSNGKYSLK	-1.89
HMNPEDDLLKAIIMKYFSNAQVQVDKNVIEYLLKRVDRDYQNLYNILEKINILSLQRKSKITTHLIRDIM	-0.414
HMNPFLELTEREMDVLRLIAIGRNNQEIASELVISEKTVKTHITNIFSKLHFKDRTQAAAYAWQSGIVR	-1.73
HMNPHGVAIIDVRKGKASTLRSLATSVRSLGEWDQLKIPIFNLESLTSLVLWHGLDAIVKEPESLQSNLIL	-0.513
HMNPHIQFWSLLRRQPDYNSAYKDELKAMFVWQWSGEKTESLNEFYKTDPYRYKSMLMDMRNRAL	-3.33
HMNPIDAHVGARVRLRRMLIGMSQEKLGELLGVTFQQIQKYEKGANRIGASRLYEVSRVLDVPVQYFFDDM	-3.66
HMNPLDGTSVHPESYEAAEKLLKKQGFSLEDISGGKLTGLSLTIKDYARLAKELEIGEITLRDIVKELEK	-0.132
HMNPLHYKAAHWVREGLFDDLKSFVELETRINSIFEEKDRGDVFEIFIEGYRSFSKWRALVLRLA	-0.365
HMNPNEVQIPDLVNKTEEEAEQILKDLKLKLVVKSEEYDENIEKGKIISQDPTYKENYKIKEHSEISVIIS	0.586
HMNPNPFVNLSPRELEVLNLLFKGYGVLEISNELNIGQTTASTFKSRILKKTSTHSVVELIKLAEQYGFIP	-0.85
HMNPNPYIVLGVDKSMPFGEIKKVYQRKRREFHPDSLVAKGLPDELLQKAQDKFIAIQEAYKSIEKNQV	0.44
HMNPNSIDEKLKLLSNREKEVAILVLKKLSYFEISEQLNITIRTVKAHTKNIYEKFNVSNRLAFLLLFN	-0.00667
HMNPSAFSEYSFELLQSALLKKKIDENLSNQTIARDAGVSEAFVQKVLTNNVKRPSVKNRVRMISYLGLD	-1.47
HMNPSFTMGTRIKEYIDAHYLEDLKLADIAEALHINLYYLSHTFKDLTGSSPMQYIIRRRIEE	-0.857
HMNPSPYLRRHLSGDWGDLDEDDRRSNDAALASGEARLLSSYQVDPDLKLWIITEWDRSVTTLLLPSE	-0.0994
HMNPTLPYGFAKRHGVILLEAGEVAVVGLREGADPAALIETRRALGRPLRVEPLDQATFDRRLSQVYA	-0.512
HMNPTSLTFRSNVKDGKVYVDGIFKGSSDLDFDLPKGRHSIRIEKDGYVPFAKTINLIKALVIDFNMEKA	-2.02
